T1: ^35S-Methionine labeled CRN-3 (C. elegans, UniProt G5EBX6 1-876)
T1 sequence: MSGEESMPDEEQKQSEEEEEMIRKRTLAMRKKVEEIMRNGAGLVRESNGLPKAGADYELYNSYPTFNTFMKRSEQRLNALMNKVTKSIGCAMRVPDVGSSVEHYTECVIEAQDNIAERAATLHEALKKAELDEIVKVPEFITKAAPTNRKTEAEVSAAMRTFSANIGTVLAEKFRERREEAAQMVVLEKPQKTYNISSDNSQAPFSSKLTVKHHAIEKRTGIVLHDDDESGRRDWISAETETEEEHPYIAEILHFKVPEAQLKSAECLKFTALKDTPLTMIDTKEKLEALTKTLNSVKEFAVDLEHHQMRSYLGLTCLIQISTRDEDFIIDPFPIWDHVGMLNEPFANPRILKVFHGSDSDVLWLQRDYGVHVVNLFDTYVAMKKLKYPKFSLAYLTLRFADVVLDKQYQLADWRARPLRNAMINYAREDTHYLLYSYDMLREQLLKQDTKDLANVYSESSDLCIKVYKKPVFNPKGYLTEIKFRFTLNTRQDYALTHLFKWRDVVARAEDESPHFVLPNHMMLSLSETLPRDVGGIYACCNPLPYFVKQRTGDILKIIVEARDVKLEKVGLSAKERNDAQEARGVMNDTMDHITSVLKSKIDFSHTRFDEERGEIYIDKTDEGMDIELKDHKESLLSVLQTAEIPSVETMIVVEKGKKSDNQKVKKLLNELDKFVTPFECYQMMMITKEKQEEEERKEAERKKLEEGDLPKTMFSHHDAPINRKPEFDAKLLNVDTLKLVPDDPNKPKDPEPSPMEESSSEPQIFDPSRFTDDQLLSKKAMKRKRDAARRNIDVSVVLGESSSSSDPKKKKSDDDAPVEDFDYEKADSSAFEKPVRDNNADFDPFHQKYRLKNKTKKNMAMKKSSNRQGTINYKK

T2: ^35S-Methionine labeled CRN-6 (C. elegans, UniProt P34508-2 18-373, limits assumed, 35S-methionine labelled)
T2 sequence (looked up): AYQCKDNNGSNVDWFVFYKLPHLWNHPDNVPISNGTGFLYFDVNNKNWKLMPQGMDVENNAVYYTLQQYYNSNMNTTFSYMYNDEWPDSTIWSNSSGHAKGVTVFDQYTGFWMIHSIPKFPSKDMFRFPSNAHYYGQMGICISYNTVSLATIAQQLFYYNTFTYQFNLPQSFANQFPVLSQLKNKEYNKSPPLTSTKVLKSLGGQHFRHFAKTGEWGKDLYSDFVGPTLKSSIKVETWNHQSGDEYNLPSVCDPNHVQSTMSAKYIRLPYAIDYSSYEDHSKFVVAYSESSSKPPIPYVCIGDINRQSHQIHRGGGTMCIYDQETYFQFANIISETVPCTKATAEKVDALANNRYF

T3: GST-NUC-1 (C. elegans, UniProt Q17778 22-375)
T3 construct: also called NUC-1 GST-fusion protein; not shown: glutathione S-transferase tag encoded by vector pGEX4T-2
T3 sequence (looked up): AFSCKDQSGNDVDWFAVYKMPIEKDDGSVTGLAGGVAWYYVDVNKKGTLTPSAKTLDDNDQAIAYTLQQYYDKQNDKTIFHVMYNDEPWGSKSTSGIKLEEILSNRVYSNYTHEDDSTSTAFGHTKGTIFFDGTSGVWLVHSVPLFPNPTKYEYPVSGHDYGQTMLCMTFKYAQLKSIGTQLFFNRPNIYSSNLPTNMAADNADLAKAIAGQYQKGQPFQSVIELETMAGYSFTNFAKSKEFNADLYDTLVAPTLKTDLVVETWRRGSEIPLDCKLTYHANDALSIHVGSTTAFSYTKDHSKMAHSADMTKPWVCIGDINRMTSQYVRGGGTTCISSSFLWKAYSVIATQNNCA

T4: GST-CRN-3 (C. elegans, UniProt G5EBX6 1-876)
T4 construct: also called CRN-3 GST-fusion protein; not shown: glutathione S-transferase tag encoded by vector pGEX4T-2
T4 sequence: T1 sequence

T5: ^35S-Methionine labeled NUC-1 (C. elegans, UniProt Q17778 22-375, 35S-methionine labelled)
T5 sequence (looked up): T3 sequence (looked up)

B1: GST-CRN-4 (other, C. elegans, UniProt Q10905 1-298, looked up)
chain: MAYQHCPFDTLLILDFETTSDAANQDYPCEVIQFAIVAYDVPNDKIREDISFNKYVKPVLNRTLTKNCVDFTGIPQRSIDTADTFDVVYEQFQQWLITLGLEEGKFAFVCDSRQDLWRIAQYQMKLSNIQMPAFFRQYINLYKIFTNEMDRMGPKELSATTNIGKMNEYYDLPTIGRAHDAMDDCLNIATILQRMINMGAKVTVNELLTCCASWRRQPLVYNKEWRSSFMDAGKIFERVLPLVVTTIRAGDFRLEMYGVCRYCRKGMDVCGTSHQQTPHDLYKNEEDPIHFAKIAGYY
notes: also called CRN-4 GST-fusion protein; not shown: glutathione S-transferase tag encoded by vector pGEX4T-2
B2: full-length ^35S-methionine labeled CPS-6 (enzyme, C. elegans, UniProt Q95NM6 1-308, looked up)
chain: MIGKVAGTAAIAGISFLAGKYSNDDLPIFRNVQSATNVPMNQIQVSEPMTVKPASLNADAMGPSRSAEIMKHGYPGFTNVRTYEDFVLSYDYKTRTAHWVCEHLTPERLKHAEGVDRKLCEFKPDITFPQKFLSQNTDYKCSGFDRGHLAAAGNHRKSQLAVDQTFYLSNMSPQVGRGFNRDKWNDLEMHCRRVAKKMINSYIITGPLYLPKLEGDGKKYIKYQVIGDNNVAVPTHFFKVALFEVTPGKFELESYILPNAVIEDTVEISKFHVPLDAVERSAGLEIFARLDPKSIVKENGAKKGGLLW
modifications: 35S-methionine labelled
notes: also called ^35S-CPS-6
B3: GST-CPS-6 (other, C. elegans, UniProt Q95NM6 1-308, looked up)
chain: B2 chain
notes: GST at the N-terminus as in pGEX vectors; also called CPS-6 GST-fusion protein; not shown: glutathione S-transferase tag encoded by vector pGEX4T-2

Legend:
Assay in all cases: GST pull-down, 35S-Met protein vs GST fusion; - means no detectable binding (footnote a)
[1] = target: T1, ^35S-Methionine labeled CRN-3
Protocol: (§1) GST fusion protein pull-down assays were performed as described in J. Parrish, H. Metters, L. Chen, D. Xue, Proc. Natl. Acad. Sci. U.S.A. 97, 11916 (2000). Purified GST or GST-fusion proteins (5 μg each) immobilized on glutathione sepharose beads were incubated with ³⁵S-Methionine labeled proteins at 4° C. for 2 hours. The beads were washed extensively and the bound proteins were resolved on a 12% SDS-PAGE and visualized by autoradiography. [0103] cDNAs corresponding to the ORFs were cloned into the pPD129.36 vector via its Nhe I and Xho I sites or the Xho I site alone. Full-length cDNAs were subcloned into the pGEX4T-2 vector for generating GST fusion proteins and for further protein purification and into the pcDNA3.1 vector for in vitro transcription/translation experiments.
(§2) ^aInteractions were evaluated relative to background binding of ³⁵S-Methionine labeled Luciferase to GST-fusion proteins and ³⁵S-Methionine labeled proteins to GST. “−” indicates no detectable binding, “+” indicates an interaction consistently observed above background levels, and “++” indicates a strong interaction. ^bBecause ³⁵S-Methionine labeled CRN-1 binds GST tightly, it was not possible to evaluate interactions between ³⁵S-CRN-1 and various GST-fusion proteins. ND, not determined.

[2] = target: T2, ^35S-Methionine labeled CRN-6
Protocol: as §1, §2

GST-CPS-6 = target: B3
Protocol: as §1, §2

GST-NUC-1 = target: T3, GST-NUC-1
Protocol: as §1, §2

GST-CRN-3 = target: T4, GST-CRN-3
Protocol: as §1, §2

GST-CRN-6 = target: T6, GST-CRN-6 (C. elegans, UniProt P08515 1-218 = GST; P34508 1-373)
T6 construct: Two crn-6 cDNAs (700 bp and 1.1 kb) were isolated; the longer one made the GST fusion; also called CRN-6 GST-fusion protein
Protocol: as §1, §2

[3] = target: T5, ^35S-Methionine labeled NUC-1
Protocol: as §1, §2

Measured: binding result

B1
no binding: [1] | [2]

B2
no binding: GST-CPS-6 | GST-NUC-1 | GST-CRN-3 | GST-CRN-6

B3
no binding: [3] | [1] | [2]

Source: US20050142568A1 (published 2005)
